{"source": "IntAct's records for PubMed 12717434", "parents": {"B1": {"name": "Multiple coagulation factor deficiency protein 2 (Homo sapiens), Q8NI22 (parent)", "chain": "MTMRSLLRTPFLCGLLWAFCAPGARAEEPAASFSQPGSMGLDKNTVHDQEHIMEHLEGVINKPEAEMSPQELQLHYFKMHDYDGNNLLDGLELSTAITHVHKEEGSEQAPLMSEDELINIIDGVLRDDDKNNDGYIDYAEFAKSLQ", "partner": "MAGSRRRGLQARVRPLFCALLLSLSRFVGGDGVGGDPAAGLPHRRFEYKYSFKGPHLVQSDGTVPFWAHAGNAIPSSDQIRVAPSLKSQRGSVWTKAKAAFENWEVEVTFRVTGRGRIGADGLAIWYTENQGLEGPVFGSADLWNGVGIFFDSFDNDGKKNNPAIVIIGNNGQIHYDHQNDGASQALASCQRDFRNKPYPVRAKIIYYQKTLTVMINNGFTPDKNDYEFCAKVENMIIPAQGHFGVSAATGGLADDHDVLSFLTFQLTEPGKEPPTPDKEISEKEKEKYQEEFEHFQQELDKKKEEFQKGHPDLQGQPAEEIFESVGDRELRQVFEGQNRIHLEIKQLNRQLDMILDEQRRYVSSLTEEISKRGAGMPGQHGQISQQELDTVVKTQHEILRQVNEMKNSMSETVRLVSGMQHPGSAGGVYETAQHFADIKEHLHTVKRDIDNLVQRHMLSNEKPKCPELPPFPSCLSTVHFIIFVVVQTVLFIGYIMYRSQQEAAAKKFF"}}}
{"variants_of": "B1", "details": "with lman1_chlae LMAN1, Q9TU32"}
{"variant": "MTMRSLLRTPFLCGLLWAFCAPGARAEEPAASFSQPGSMGLDKNTVHDQEHIMEHLEGVINKPEAEMSPQELQLHYFKMHDYDGNNLLDGLELSTAITHVHKEEGSEQAPLMSEDELINIIDGVLRDDEKNNDGYIDYAEFAKSLQ", "effect of a mutation on the interaction": "disrupting interaction strength"}
{"variant": "MTMRSLLRTPFLCGLLWAFCAPGARAEEPAASFSQPGSMGLDKNTVHDQEHIMEHLEGVINKPEAEMSPQELQLHYFKMHDYDGNNLLDGLELSTAITHVHKEEGSEQAPLMSEDELINIIDGVLRDDDKNNDGYTDYAEFAKSLQ", "effect of a mutation on the interaction": "disrupting interaction strength"}
{"variant": "MTMRSLLRTPFLCGLLWAFCAPGARAEEPAASFSQPGSMGLDKNTVHDQEHIMEHLEGVINKPEAEMSPQELQLHYFKMHDYDGNNLLDGLELSTAITHVHKEEGSEQAPLMSEDELINIIDGVLRDDDKNNDGYVDYAEFAKSLQ", "effect of a mutation on the interaction": "decreasing interaction strength"}
